Laboratory results from US6699662.

Biological target: T1, SarA (staphylococcal accessory regulator A), strain DB (Staphylococcus aureus) (UniProt Q2G2U9)
T1 sequence: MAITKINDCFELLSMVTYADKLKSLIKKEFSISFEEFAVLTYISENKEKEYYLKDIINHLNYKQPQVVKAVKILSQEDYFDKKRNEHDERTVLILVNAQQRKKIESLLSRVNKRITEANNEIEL
Test: EMSA
Conditions: same buffer; 1 dimer per DNA; dG dissociation 12.1 kcal/mol

“AC oligo (45 bp, footprint region of Chien and Cheung)” was tested, and the Kd was 1 nM.
